Reference: PMC1887688

Target: MHC class II (HLA-DR1) on human LG-2 cells (human (endogenous in LG-2))
Assay: radioligand binding

Substance: SMEZ-2, recombinant (natural protein)
- KD, high affinity site: 25 nM
- KD, low affinity site: 1000 nM
